# Results reported in the DeepSol protein solubility set.
# Assay: soluble on expression in E. coli; label from the status in PepcDB or PDB records
row,Sequence,soluble on expression in E. coli
1,ENLYFQGMKPIHVGLLGLGTVGGGTLTVLRRNAEEITRRAGREIRVVRAAVRNLDKAEALAGGLPLTTNPFDVVDDPEIDIVVELIGGLEPARELVMQAIANGKHVVTANKHLVAKYGNEIFAAAQAKGVMVTFEAAVAGGIPIIKALREGLTANRIEWLAGIINGTSNFILSEMRDKGAAFDDVLKEAQRLGYAEADPTFDIEGIDAAHKLTILSAIAFGIPMQFERAYTEGISQLTREDVRYAEELGYRIKLLGIARRAENGIELRVHPTLIPERRLIANVDGAMNAVLVKGDAVGPTLYYGAGAGSEPTASAVVADLVDVTRLHTADPHHRVPHLAFQPDQLADTPILPMEAVRTAYYLRLRAFDRPGVLADITRILADSSISIDAMVQKEPAEGEEQVDIILLTHVTLEKNVNAAIAKIEALDAVAGKVMRIRLEDLGAK,soluble
2,MILNPQQRTKLDSRRDDLFYAAPRFVTHVDDFFLARLTDLYRQYLQPQMRVLDLMSSWVSHLPPELSFQEVVGHGMNAAELARNPRLDRYFVQNLNEELALPLEDASFNAVLMAVSVQYLQYPEATFTEIARILKPQGVVIVSFSNRMFFEKAIQAWREGSEGDRVQLVQTYINSTPSLKVIATHLPRLWPWRGFTDPFYAVVGQKQAVLEHHHHHH,soluble
3,HHHHHGSIMKVLRKGDRGDEVCQLQTLLNLCGYDVGKPDGIFGNNTFNQVVKFQKDNCLDSDGIVGKNTWAELFSKYSPPIPYKTIPMPTANKSRAAATPVMNAVENATGVRSQLLLTFASIESAFDYEIKAKTSSATGWFQFLTGTWKTMIENYGMKYGVLTDPTGALRKDPRISALMGAELIKENMNILRPVLKREPTDTDLYLAHFFGPGAARRFLTTGQNELAATHFPKEAQANPSIFYNKDGSPKTIQEVYNLMDGKVAAHRK,soluble
4,MKTSANIATSASGNGLADVLERVLDKGVVIAGDISVSIASTELLNIKIRLLISSVERAKEIGINWWESDPYFSSQNNSLVQANEKLLERVASLESEIKALRSN,not soluble
5,MTLYRQLLAREKENNPIRVGVIGAGQMGFGMISQIAAIPGMSVVGISDIHVDAAKKAADAYNATATKKEKILLSNDFKEIIHSDLVEVIVDATGVPEVGAKISLETLLAKKQLVLLNVEIDITIGPLMKKLYDSAGLVYTGSDGDEPAAITELYEFSKSMGMEVLVAGKGKNNKLKISANPDSCQVEADGKNMASHMLAAFQDGTKTMAEMNLLSNAIGYVPDVVGMHGISGDVDSVIKDLDLKEQGGILNQFGVVEYVDGLAPGVFVIVKGQNEGVSHELSYLMKKGERDHHILYRPYHLASLETPLTIAKAVLNHDHAIVPMGAPVSETVAVAKKDIAAGERLDGIGGFCVRGVLETHVDMAAEGHIPIGLISGEVVARRNIKAGTFITDEDVSLDESTTVWKLRKLQDETFSN,not soluble
6,MHHHHHHSSGVDLGTENLYFQSMGKVKATPMTPEQAMKQYMQKLTAFEHHEIFSYPEIYFLGLNAKKRQGMTGGPNNGGYDDDQGSYVQVPHDHVAYRYEVLKVIGKGSFGQVVKAYDHKVHQHVALKMVRNEKRFHRQAAEEIRILEHLRKQDKDNTMNVIHMLENFTFRNHICMTFELLSMNLYELIKKNKFQGFSLPLVRKFAHSILQCLDALHKNRIIHCDLKPENILLKQQGRSGIKVIDFGSSCYEHQRVYTYIQSRFYRAPEVILGARYGMPIDMWSLGCILAELLTGYPLLPGEDEGDQLACMIELLGMPSQKLLDASKRAKNFVSSKGYPRYCTVTTLSDGSVVLNGGRSRRGKLRGPPESREWGNALKGCDDPLFLDFLKQCLEWDPAVRMTPGQALRHPWLRRRLPKPPTGEKTSVKR,soluble
7,MMSAVERRMEIVNVVNQDGKARVEDLAARFDVSSVTIRSDLSFLEKNGYVVRSHGAAIPNTGVIAELTVHEKRHQNIGTKSSIGYAAAQLIENGDTVILDSGTTTREIASNLKSLEQAVVMTNGLDVAMELASASGIEVLMSGGVLRKKALSFSGSQAEASLKNYRFDKVFLGVDGFDLRSGITTHNEQEASLNRLMCDISEQVIAVADSTKFGKRSCHMIREFGNIDILVTDSDIPEEYLQGLREMKVEVIIVEKEK,not soluble
8,MSAVMATYLLHDETDIRKKAEGIALGLTIGTWTDLPALEQEQLRKHKGEVVAIEELGESERVNAYFGKRLKRAIVKIAYPTVNFSADLPALLVTTFGKLSLDGEVRLLDLEFPDEWKRQFPGPRFGIDGIRDRVGVHNRPLLMSIFKGMIGRDLAYLTSELKKQALGGVDLVKDDEILFDSELLPFEKRITEGKAALQEVYEQTGKRTLYAVNLTGKTFALKDKAKRAAELGADVLLFNVFAYGLDVLQALREDEEIAVPIMAHPAFSGAVTPSEFYGVAPSLWLGKLLRLAGADFVLFPSPYGSVALEREQALGIARALTDDQEPFARAFPVPSAGIHPGLVPLIIRDFGLDTIVNAGGGIHGHPDGAIGGGRAFRAAIDAVLAGRPLRAAAAENEALQKAIDRWGVVEVEA,soluble
9,PLKIGPPGHRYAFPLYSSKNLERDDLRGIRRLVIVLHGVKRNAASIHGTVTALFAANPERAEDTLVIAPKFASAIDAGFAAMPAWRRASWEDGELSMQARGRPAPVSSLQVLDDLLRELSDSSRLPALRTIVLAGHSGGAQLVQRYAVLNSLDETL,not soluble
10,MTSNHAILFPGQGAQRADMGAPIFDIYTKLVAEAEEIAEFSIRDFFRDCPADRFSNTLYVQPALYTVNALYYRRYIDESGALPLFLAGHSLGEFNALHAAGVFDFETGLRLVKKRALLMSESQGGGMAAVLGLNAEEVVKILEENNLFDLTIANINSDLQMVISGPIESIKQAEEIFYDNYAIKYVVLRVSGAFHSTMLNTAAIKFSEYIQGFSFLPPQIPVIANRTACPYTLSSVIKNLSEHINRPVMWRQSVIYMRTHGVERFTEMGETSLLLDMVKNIL,not soluble
11,MSLYSKDGENYFIVDAHVALWDARRENQRNIHGKQFIDCFYDYHRNLSPASELWPYEDFLYQGGERLMKDLFTDGYVDHAIFQPAHLGAFYNTGFGQTEEAFALTRKHPGMLTYNHCFDPRFEEAGLKQLREDAARFGLKGVKLYTAEWKGDSRGYKLSDPWTYRYLDACRELGIKNIHVHKGPTIRPLDRDAFDVADVDAAASDFTDLNFVVEHCGLPRLEDFCWIATQEPNVHAGLAVAIPFMHTRPRYFAQIIGELLYWLDEDRIQFSSDYALWTPRWIVEQFVDFRIPDDMTGEYPQLTVAQKKKILGLNAAAMYDIEVPAEGHHHHHH,soluble
12,MGSDKIHHHHHHMLPLEGLTVIAVEQAVAAPYCSSRLADAGAHVIKIERPEGDFARGYDAAAKGQSSYFVWLNRGKESAVVDLATKEGRAELEKLIASADVLLQNLKPGSMDKLGFARERLRKDYPKLIICTISGYGDEGPYAHRKAYDLLIQAESGLASITGGPESASRVGMSIVDVATGATAHAAILEALIGRGRTGQGADIRISMFDVMADWLTVPLLNAEAGNPPKRLGLAHPSIAPYGVFTSKDGKDILISIQSEREWKKLCSDVLRQPDLPNDPRLCNGVERVKNRAYTDKIVADIFGSLTRDDLLEHLAAADIAFAEVNAMEDLSHHPHLRRIEVDTPNGKVSYPAPAAIFVGDERRYGAVPGIGDKRK,not soluble
13,MNMLKKSLTALVLLGGLGAPVVAHATPAAAEAASEVQVAWVDGKVRISWTEAAGIPNTVSLELPGKPRKTLGTTTAAGDNQLVVEPSALEPTNDPASVAKIVVSDPSTAEARSAGFDRYVRGATPLAPVMTGTGVLNWQFPADTAVDSTPNDPLDVDAPVQFVPKLTLGVTPGTTDECKTVVLPATTAPYGSVPKQISPYALELLNVSEWGQSKLAGVRVRSSSTAFSTPASTGYGTRITMTGSILLQTLQNPAAGNCEDVTDTAALGGHELALQAREDGGAWYAVGVSKTDAQGKYQFVVSNPGARQYRAVLKTAAASGAAHYQSISAERSVRATPQVIDASFADDTITLGQQPNARVTVAPYGSHQVALQFKNASGQWQGLMYRTLSAGRAESGPFAFSRLGDTQFRWWVASSTSTTGLPVDAGYTYPFTLHVS,not soluble
14,MGSDKIHHHHHHMNLRRRGIVVSFHSNMVTVEDEETGERILCKLRGKFRLQNLKIYVGDRVEYTPDETGSGVIENVLHRKNLLTKPHVANVDQVILVVTVKMPETSTYIIDKFLVLAEKNELETVMVINKMDLYDEDDLRKVRELEEIYSGLYPIVKTSAKTGMGIEELKEYLKGKISTMAGLSGVGKSSLLNAINPGLKLRVSEVSEKLQRGRHTTTTAQLLKFDFGGYVVDTPGFANLEINDIEPEELKHYFKEFGDKQCFFSDCNHVDEPECGVKEAVENGEIAESRYENYVKMFYELLGRRKK,not soluble
15,MLSVSPLLQSPSSASMRFLSLDAYGRVLDWISWQDAACLYVRNAVSWTLGDPCLSIHGGISRLTGKRSVIALHPIIASRGHARTYVPVPTPALTNQALFARDDHLCLYCGQQFSRFQLTRDHVIPISKGGLDTWENVVTACFHCNSLKANRTPQQAGMRLLAVPYRPSWIEHLILSNRNILADQMAFLKAQLPKRSKLSRNLEHHHHHH,not soluble
16,MFPIKKRKAIKNNNINAAQIPKHIAIIMDGNGRWAKQKKMPRIKGHYEGMQTVRKITRYASDLGVKYLTLYAFSTENWSRPKDEVNYLMKLPGDFLNTFLPELIEKNVKVETIGFIDDLPDHTKKAVLEAKEKTKHNTGLTLVFALNYGGRKEIISAVQLIAERYKSGEISLDEISETHFNEYLFTANMPDPELLIRTSGEERLSNFLIWQCSYSEFVFIDEFWPDFNEESLAQCISIYQNRHRRFGGL,soluble
17,NDAIPTIFIHGYRGTDRSLHGMIRRFDQKYNWGTESLTVNVSPDGSISTTGTYSKNEKNPLINIVFEDNRATLPQQSMWTKKIMSYLQKNYDIKKFNAIGHSMGGGAWVSYLASYEKNKSYPQVNKIVFLAVPFYPEEYVNGDQQVDIKNANNVHAKFAQKMAKVLPDNTEIMIIGGDLEDGSNSDGEVKLNSVLYGQKLFAHQKVITHVIKGPKATHSSMHESTVVDKYVGQFLWG,not soluble
18,GPGSMGSGYLKRKRQRQELLNDFYSALSLSSFDTTSGQFSKLVTRTVYHYPSSLPFPVLLDDDFPAEPYRSRNKDIKSAIHWGQRKLLLSEIQLLSMYCRPEISYHIVYAGAAPGTHLAFLDEMFSCRHTWELIDPGQFDRAVLEPRANFRLRNEFFTNATAYGINARRLTEVLPALGFVYQNVAVDSVQVDKKAIHEQLQDIVGTLDVARGTEDIPAMYEAPLSLPKGLELLAQVALERNKPLLFISDIRSGSVALPNFEDHVAENMRAQECWTNILHGEHSMLKFRLPYTSKSTKFGGQGAVRETLLIREDGTVPYLRGDMLLPIWTRPTSTEGRLVVPQGAFQKDYNVAHVEDQFFFFNSSVREQVHFNHLVAHDSELDHHYDAAAEVHCLLTYLRFIRPELKTAKTGELRKEVLRVAHSITAHLGITFEDAIRRRDALMINHAKKSQNKAVEGHKDDAYGDEEAEEQEAKSAASKVRAGSNESAAAADGAATSTTAPVPPSEWEQTTRLMVRLSNYDRNRSVWSRNVREEEHSKTSGFWVTTKMPQA,not soluble
19,ISDVKFTVRGNITYSKNEIIERDEENNVYAYQMKKGYRVNQNRGLIALGLFKDYDDIRNSPTQKYGPVMPGDIKYKDVNGDGVVNDGDIVAIGSTSKPNLIYGLGLSATWKGLDVSLHFQGAGKSQFFTYGKCIWAFTEGQWGNILKGTLDNRWVDAETAQKLGIPANENPNASYPRLSYTDNGNGNTTIYEYKNNYRNSTYWLRNGSYVRLKTIDVGYTLPKKIVNKIHFNNVRIFMTGTNLLTWSSFKLWDPEMGASRGEQYPLAKSITLGLSVNL,not soluble
20,MGINVRAVEIQDARAIHRICIQDNVLPYMVFLPSMRVEAMENRIRNLAPNQFEFVAEYDGEVVGFVGLTQSPGRRSHSGDLFIGVDSEYHNKGIGRALLTKMLDLADNWLMLERVELGVLETNPKAKALYEKFGFVEEGVKIGNLKAHGKFINEIMMSRFRPNGLIVHNE,not soluble
